Blank lines part the entries; values can stand above or below the molecule they belong to.
Tests used:
[1] = target: SEL1L S658P (mouse knock-in) (mouse (endogenous in MEFs and P0 liver)) (UniProt Q9Z2G6); assay: co-IP; IP of endogenous SEL1L from P0 mouse liver lysates (WT, Sel1L^S658P, Sel1L^L709P); same lysis buffer; DERL2 eluted with 0.1 M glycine pH 2.5; immunoblot with quantification
[2] = target: SEL1L S658P (mouse knock-in) (mouse (endogenous in MEFs and P0 liver)) (UniProt Q9Z2G6); assay: co-IP; IP of endogenous SEL1L (1 ug anti-SEL1L, Protein A agarose, overnight 4 C) from MEF lysates (WT, Sel1L^S658P, Sel1L^L709P, Sel1L^P699T, Sel1L^ERCre KO); 150 mM NaCl, 25 mM Tris-HCl pH 7.5, 0.2% NP-40, 0.1% Triton X-100; immunoblot, prey band normalised to bait
[3] = target: HRD1 (mouse) (mouse (endogenous in MEFs and P0 liver)) (UniProt Q9DBY1); assay: co-IP; reciprocal IP of endogenous HRD1 (anti-HRD1, Protein A agarose) from MEF lysates; same lysis buffer; immunoblot

reduction of HRD1 association against WT [1]: 80%
reduction of HRD1 binding against WT [2]: 60%
Molecule: HRD1 (mouse) (from UniProt Q9DBY1 1-612) (enzyme)

reduction of SEL1L–HRD1 binding against WT [3]: 60%
Molecule: SEL1L S658P (mouse knock-in) (from UniProt Q9Z2G6 22-790) (natural protein)

decrease of DERL2 interaction against WT [1]: 60%
B1: DERL2 (mouse) (natural protein)
chain: MAYQSLRLEYLQIPPVSRAYTTACVLTTAAVQLELITPFQLYFNPELIFKHFQIWRLITNFLFFGPVGFNFLFNMIFLYRYCRMLEEGSFRGRTADFVFMFLFGGFLMTLFGLFVSLVFLGQAFTIMLVYVWSRRNPYVRMNFFGLLNFQAPFLPWVLMGFSLLLGNSIIVDLLGIAVGHIYFFLEDIFPNQPGGIRILKTPSILRTIFDTPDEDPNYNPLPEERPGGFAWGEGQRLGG

Reference: article PMC12891039
